Results: the supplement of paper PMC9170038

Test system: MS2 coat protein
Assay: apparent KD of MS2 coat protein, switch ON state; designed switch direction (-1 OFF switch, 1 ON switch): 1; higher = weaker reporter binding
Conditions: FMN input: 0 or 200 uM; Eterna round: R93 (includes R88 designs)
Method in brief: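 Designed RNA switches were made by on-chip transcription from Illumina sequencing clusters and then titrated with SNAP-549-labelled MS2 coat protein. Twofold steps ran from 0.7 or 1.5 nM to 3 µM, each lasting 0.8–1.5 h early and 10–20 min late, in 100 mM Tris-HCl pH 7.5, 80 mM KCl, 4 mM MgCl2, without or with constant ligand. Apparent KD is the per-design median of normalised cluster binding-curve fits.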

Row | Sequence | apparent KD of MS2 coat protein [nM]
1 | AGGAGACAUGAGGAUCACCCAUGUGAGAAGAGGCGAGGAUAUCGAAAGAAAGAAAGAAAACGAGAAGGCGCGAGAA [salish99-SS1-016] | 28
2 | AAGAAACAUGAGGAUCACCCAUGUGAGAUAAACACAGGAUAUGCGAAAAGAAAUAAAUAAGCAGAAGGGUGAAGAA [Mat - Same State 1 - Tesla mod - 70] | 26.4
3 | AGCACGGGAUUGGAGGAUAUGUUGUUUGCAACAUGAGGAUCACCCAUGUCUGAGGCUGAAAAGCAGCAGAAGGCCGAUACAACCA [SS2-1.2] | 43.8
4 | GAGGACGUAGGAUAGGAUAUGUGAAUAAUUACAUGAGGAUCACCCAUGUCCAUUUAUAUGGGAACAUAGAAGGGUUUUCGUUAUC [SameState2 Malc#40] | 646
5 | AGAAAUAAAAGGCAGGAUAUCCAAAAGAAAACAUGAGGAUCACCCAUGUAAAAGAAAAUAAAGUGGGAGAAGGGCCAAAAUAAAG [My design (73%) + Space bases] | 11.7
6 | UACACGCUGGCGCAGGAUAUGUCGCUGGUGACAUGAGGAUCACCCAUGUAUACCAUUGCGGUUAAGCAGAAGGGUGAGAAGCGUG [Bidibeso] | 23.5
7 | AAAUUACAUGAGGAUCACCCAUGUAGCGACGUGACAGGAUAUGUGGGUGAAAAUAGCAUGACAGAAGGGUCCCGUA [SameState1 Malc#40] | 57.8
8 | AGAAAUAAAAGAGAGGAUAUCCAAAAGAAAACAUGAGGAUCACCCAUGUAAAAGAAAAUAAAAUGGGAGAAGGCUCAAAAUAAAGA [Helter Skelter 2] | 21.6
9 | AAAAGACAUGAGGAUCACCCAUGUAAAAACAUAGGAGGAUAUGUCGUGAAAAAAGACUUGGCAGAAGGCCUAUGUC [SS1 - 44] | 19.7
10 | AGCACGUGAUUGGAGGAUAUGUUGUAAGCAACAUGAGGAUCACCCAUGUCUGAGGCUGAAAAGCAGCAGAAGGCCGAUACAACCA [SS2-1.3] | 37.2
11 | AAAUAACAUGCGCAGGAUAUGAGACCGAUAACAUGAGGAUCACCCAUGUUAAGGAAGAAAUAAAAUCAGAAGGGUGGGUGGACCU [Aatteri] | 25.7
12 | CGGAGACAUGAGGAUCACCCAUGUGAGAAGAGGCGAGGAUAUCGAAAGAAAGAAGAGAAACGAGAAGGCGCGAGAU [salish99-SS1-069] | 20.4
13 | AAAGACAUGGUGCAGGAUAUAUUAAUAGUCACAUGAGGAUCACCCAUGUUCAGAUAUCUGAACGAGUAGAAGGGCGAUGAAAAAA [SameState2 Malc#5] | 88.9
14 | AACUACAUUAUGAAGGAUAUCCACAUCAAGACAUGAGGAUCACCCAUGUAUACUUAGAUCAUACAGGAGAAGGUCAAGGGUGAAU [JR_SS002_Sub1207] | 244
15 | UAGAGACAUGAGGAUCACCCAUGUAGGAUUAUGGGAGGAUAUACAAAGACGAGAGUCAGAGUAGAAGGCCUAGGAC [salish99-ss1-136(!)] | 21.4
16 | AUAAAAUAAAAGGAGGAUAUCCUUAAUAAAACAUGAGGAUCACCCAUGUAAAAAAUAAUAAAAUGGGAGAAGGCCUAAAAUAAAU [SS2 M 26] | 24.2
17 | AAAAAAAAAAGUCAGGAUAUACAAAUUUUUACAUGAGGAUCACCCAUGUUAAAGAAAAAAAAAAAGUAGAAGGGACAAAAAAAAAA [Same State 2 - Omei 2] | 11.1
18 | AAAAGACAUGAGGAUCACCCAUGUCAAAAGACAUGAGGAUAUGUACAGACUUCGGUCUGUACAGAAGGCAUGAAAA [SS1 - 1066] | 13.8
19 | AAAAAACAUGAGGAUCACCCAUGUAAAAAAAUGGGAGGAUAUACAAAAAAAAAAAAAAAAGUAGAAGGCCUGAAAA [same state 10] | 62.3
20 | AGGAAACAUGAGGAUCACCCAUGUAAGAUAUAUACAGGAUAUGCGAAAAGAAACAAAGAAGCAGAAGGGUAAAAAA [75%, Ex sub1, 13] | 18
21 | AAAAUACAUGAGGAUCACCCAUGUGAAAAUAUGGGAGGAUAUACAAAAACGAAAGUAAAAGUAGAAGGCCUAAAAA [SS! 1 MT 1] | 37.8
22 | AGGAAACAUGAGGAUCACCCAUGUAAAAAAAUGGGAGGAUAUACUAGAAGAAACAAAAUAGUAGAAGGCCUAAAAA [75%, Ex sub1, 27] | 18.9

Row | Sequence | apparent KD of MS2 coat protein [nM]
23 | GAAAAACAUGAGGAUCACCCAUGUGAGAAUAUGGGAGGAUAUUCAAAGACGAAAGUCAAAGAAGAAGGCCUAAAAG [Mat - Same State 1 - Eli mod - 37] | 31.2
24 | AGAAAUAAAACACAGGAUAUCCAAAAGAAAACAUGAGGAUCACCCAUGUAAAGAAAAUAAAAAUGGGAGAAGGGUGAAAAUAAGA [Mat - Same State 2 - JL mod - D15] | 19.9
25 | GUAAGACAUGAGGAUCACCCAUGUAUGCGUCAGCAAGGAUAUGGGAAUAAAAGACAGAAACCAGAAGGUGCUGUUG [Enqudi] | 26.1
26 | AAUAUACAUGAGGAUCACCCAUGUUUUGGUGGGUCAGGAUAUAAAAACAAUUACAUAAAGUUAGAAGGGACAAAUA [JR_SS001_Sub004] | 111
27 | AAGAAACAUGAGGAUCACCCAUGUGAGAAUAUGGGAGGAUAUACAAGGACGUAAGUCAAGGUAGAAGGCCUAAGAA [Mat - Same State 1 - Meechl mod - D139] | 25.8
28 | AGAAAUAAAUGAGAGGAUAUCCUAAAGAAAACAUGAGGAUCACCCAUGUAAAAGAAAAUAAAAUGGGAGAAGGCUCAUAAUAAAG [Starry Same State 2 (jandersonlee round 1 mod)] | 20.8
29 | GAAGACAUAGUACAGGAUAUAUGAAUAGUCACAUGAGGAUCACCCAUGUCCAUUUAUAUGGGCACAUAGAAGGGUGGUAGUUGUC [Mat - Same state - Malcolm Mod - D125] | 8.69
30 | AGAAAUAAAAGAGAGGAUAUCCAAAAUAAAACAUGAGGAUCACCCAUGUGUACGAAAGUACAAUGGGAGAAGGCUCAAAAUAAAG [80% More Helter Skelter 2 + Hairpin] | 1280
31 | AAAACACAUGAGGAUCACCCAUGUGCAAAAUUCGCAGGAUAUUUCUCGAUUAAAUGAUAGGAAGAAGGGUGAUAAA [Nob's Hobby 35 - Jieux - Same State 1] | 25.8
32 | AAAAGACAUGAGGAUCACCCAUGUUAAGACGUAGGAGGAUAUGUCGUGAAAAAAGACUUGACAGAAGGCCUGUGUC [SS1 - 38] | 16
33 | GGGAGACAUGAGGAUCACCCAUGUGAGAAGAGGCGAGGAUAUCGAAAGAAAGAAGAGAAACGAGAAGGCGCGAGUA [salish99-SS1-050] | 29.7
34 | UCAGUGCCGACGAAGGAUAUAGCGGGUGAGACAUGAGGAUCACCCAUGUAUGCAGAACUCAUCCUCUAGAAGGUUGAGACGGCAA [Onaaror] | 101
35 | CAUCACGCGCCUAAGGAUAUGUCUCACAAGACAUGAGGAUCACCCAUGUAGAAUAAAUAAAUGAUGCAGAAGGUGGAGCGCAUGC [Gerixeza] | 134
36 | ACAAAACAUGAGGAUCACCCAUGUCGACUAAAUCAAGGAUAUGGGAAUGCGAAAGCAAAGCCAGAAGGUGAGGUCC [Xeorarbiar] | 294
37 | AAACCACAUGAGGAUCACCCAUGUAAAAAUAUGGGAGGAUAUCGGAAUAAAAUAAAGAAACGAGAAGGCCUAAAAA [59%, Flamingo, 5] | 33.7
38 | AAUCCAAAUAGUUAGGAUAUGGGAAUUAAGACAUGAGGAUCACCCAUGUCAUUAAAACAAGUUAACCAGAAGGGACAGGGUGAAA [JR_SS002_Sub208] | 14.7
39 | GAAAUACAUGAGGAUCACCCAUGUUAGGUAAAACAAGGAUAUCUAGAUAAAUAAAAAUAUAGAGAAGGUGUAUAAA [JR_SS001_Sub206] | 20.6
40 | CAGAGACAUGAGGAUCACCCAUGUAGGAUUAUGGGAGGAUAUACAAAGACGAGAGUCAGAGUAGAAGGCCUAGGCC [salish99-ss1-145] | 29.7
41 | GUGUAAAGAAUCGAGGAUAUCCUGAAAAGCACAUGAGGAUCACCCAUGUAAGAGCGAGAAUAAUGGGAGAAGGCGAGUUAUCGGU [JR_SS002_Sub1711] | 20.1
42 | AAAUAAAUGACUGAGGAUAUAUCGAAGAAGACAUGAGGAUCACCCAUGUGAUAAUAAAAAGGGUGGUAGAAGGUAGUCAACAAAC [Mod 8 of Pariah 4 by Hyphema in Round 1] | 133
43 | AAAAAUAAAACACAGGAUAUCCAAAAGAAAACAUGAGGAUCACCCAUGUAAAGAAAAUAAAAAUGGGAGAAGGGUGAAAAUAAGA [Mat - Same State 2 - JL mod - D21] | 29.9
